We go through 18 sequences from the Immune Epitope Database (IEDB).

One experiment addresses HLA-A*02:02. Briefly: IEDB peptide-MHC binding, purified MHC/competitive/radioactivity; ≥ and ≤ were set here for values at or beyond the usual limits of such assays.
The next experiment concerns the target HLA-A*02:03. The experiment is described as above.
The target in a further experiment is HLA-A*02:06. The description is as above.
A further experiment has as its target HLA-A*02:01. The description is as above.
The target in the next experiment is HLA-A*68:02. Briefly: IEDB peptide-MHC binding, cellular MHC/competitive/fluorescence; ≥ and ≤ were set here for values at or beyond the usual limits of such assays.
Where [1] appears, read: source organism: Vaccinia virus WR.
Setting [2] is: source organism: Hepacivirus hominis.
The mark [3] stands for this setting: source organism: Mammarenavirus brazilense.

As to DMLKLFTHDI, the IC50 with HLA-A*02:02 (setting [1]) was determined as 196 nM; with HLA-A*02:03 (setting [1]) it was 16 nM; with HLA-A*02:06 (setting [1]) it was 2970 nM; with HLA-A*02:01 (setting [1]) it was 1450 nM; with HLA-A*68:02 (setting [1]), 6410 nM.

Regarding VLQAGITRV, the IC50 in the experiment with HLA-A*02:02 (setting [2]) was found to be 98 nM; with HLA-A*02:03 (setting [2]) it was 12 nM; with HLA-A*02:06 (setting [2]) it was 393 nM; with HLA-A*02:01 (setting [2]) it was 56 nM; with HLA-A*68:02 (setting [2]) it was 35600 nM.

Consider SMSQELAEL, for which the IC50 is 4 nM in the experiment with HLA-A*02:02 (setting [1]); 7.7 nM in the experiment with HLA-A*02:03 (setting [1]); 186 nM in the experiment with HLA-A*02:06 (setting [1]); 84 nM with HLA-A*02:01 (setting [1]); 42900 nM with HLA-A*68:02 (setting [1]).

As to LLLLSVGVGI, the 50% inhibitory concentration (IC50) with HLA-A*02:02 (setting [2]) came out at 2570 nM; with HLA-A*02:03 (setting [2]), 605 nM; with HLA-A*02:06 (setting [2]) it was 714 nM; with HLA-A*02:01 (setting [2]), 764 nM; with HLA-A*68:02 (setting [2]), 52600 nM.

Regarding LLEQLIENI, the IC50 is 702 nM in the experiment with HLA-A*02:02 (setting [1]); 1960 nM in the experiment with HLA-A*02:03 (setting [1]); 539 nM with HLA-A*02:06 (setting [1]); 1570 nM with HLA-A*02:01 (setting [1]); at least 70000 nM with HLA-A*68:02 (setting [1]).

Consider ATLNTLITL, for which the concentration for half-maximal inhibition (IC50) with HLA-A*02:02 (setting [1]) was 373 nM; in the experiment with HLA-A*02:03 (setting [1]) it was 577 nM; with HLA-A*02:06 (setting [1]), 9.6 nM; in the experiment with HLA-A*02:01 (setting [1]), 57 nM; in the experiment with HLA-A*68:02 (setting [1]) it was 5360 nM.

LLMALPHQA: the 50% inhibitory concentration (IC50) in the experiment with HLA-A*02:02 (setting [2]) is 52 nM; in the experiment with HLA-A*02:03 (setting [2]) it was 10 nM; in the experiment with HLA-A*02:06 (setting [2]), 1560 nM; with HLA-A*02:01 (setting [2]), 73 nM; with HLA-A*68:02 (setting [2]), 9880 nM.

Regarding GLLEWIFRA, the half-maximal inhibitory concentration (IC50) with HLA-A*02:02 (setting [3]) was determined as 22 nM; with HLA-A*02:03 (setting [3]) it was 226 nM; with HLA-A*02:06 (setting [3]) it was 7.1 nM; with HLA-A*02:01 (setting [3]), 1.2 nM; with HLA-A*68:02 (setting [3]) it was 53100 nM.

On to FLLALLSCI, for which the IC50 was 8.7 nM with HLA-A*02:02 (setting [2]); 7.3 nM in the experiment with HLA-A*02:03 (setting [2]); 15 nM with HLA-A*02:06 (setting [2]); 2.4 nM with HLA-A*02:01 (setting [2]); at least 70000 nM with HLA-A*68:02 (setting [2]).

Turning to IMRNFLRSI, the half-maximal inhibitory concentration (IC50) came to 485 nM with HLA-A*02:02 (setting [1]); 0.4 nM in the experiment with HLA-A*02:03 (setting [1]); 3920 nM with HLA-A*02:06 (setting [1]); 2060 nM with HLA-A*02:01 (setting [1]); 62700 nM with HLA-A*68:02 (setting [1]).

For the sequence YIEDELRRAA, the IC50 with HLA-A*02:02 (setting [1]) is 628 nM; with HLA-A*02:03 (setting [1]) it was 166 nM; in the experiment with HLA-A*02:06 (setting [1]) it was 204 nM; with HLA-A*02:01 (setting [1]) it was 573 nM; in the experiment with HLA-A*68:02 (setting [1]), 24800 nM.

For LQISRVNDL, the IC50 was 90 nM with HLA-A*02:02 (setting [1]); 11 nM with HLA-A*02:03 (setting [1]); 229 nM in the experiment with HLA-A*02:06 (setting [1]); 1700 nM with HLA-A*02:01 (setting [1]); at least 70000 nM in the experiment with HLA-A*68:02 (setting [1]).

With ILSLETVKM, the concentration for half-maximal inhibition (IC50) was found to be 4.8 nM with HLA-A*02:02 (setting [1]); 12 nM with HLA-A*02:03 (setting [1]); 280 nM with HLA-A*02:06 (setting [1]); 204 nM with HLA-A*02:01 (setting [1]); 9700 nM with HLA-A*68:02 (setting [1]).

Consider FQFICNLLLL, for which the IC50 with HLA-A*02:02 (source organism: SARS-CoV1) turned out to be 7.9 nM; with HLA-A*02:03 (source organism: SARS-CoV1), 62 nM; in the experiment with HLA-A*02:06 (source organism: SARS-CoV1), 0.87 nM; with HLA-A*02:01 (source organism: SARS-CoV1) it was 5.3 nM; with HLA-A*68:02 (source organism: SARS-CoV1), 9080 nM.

Turning to GLLDSIKMI, the 50% inhibitory concentration (IC50) in the experiment with HLA-A*02:02 (setting [1]) was 80 nM; with HLA-A*02:03 (setting [1]) it was 14 nM; with HLA-A*02:06 (setting [1]), 43 nM; in the experiment with HLA-A*02:01 (setting [1]), 15 nM; in the experiment with HLA-A*68:02 (setting [1]), at least 70000 nM.

HLDGEVLSL: the 50% inhibitory concentration (IC50) with HLA-A*02:02 (source organism: SARS-CoV1) was 66 nM; with HLA-A*02:03 (source organism: SARS-CoV1), 131 nM; in the experiment with HLA-A*02:06 (source organism: SARS-CoV1) it was 160 nM; in the experiment with HLA-A*02:01 (source organism: SARS-CoV1), 67 nM; with HLA-A*68:02 (source organism: SARS-CoV1) it was 13600 nM.

For FLMSFTILCL, the 50% inhibitory concentration (IC50) with HLA-A*02:02 (source organism: SARS-CoV1) is 0.82 nM; in the experiment with HLA-A*02:03 (source organism: SARS-CoV1) it was 213 nM; with HLA-A*02:06 (source organism: SARS-CoV1), 74 nM; with HLA-A*02:01 (source organism: SARS-CoV1), 9.2 nM; with HLA-A*68:02 (source organism: SARS-CoV1) it was 7570 nM.

As for VLALYSPPLI, the IC50 with HLA-A*02:02 (setting [1]) is 16 nM; with HLA-A*02:03 (setting [1]), 101 nM; with HLA-A*02:06 (setting [1]), 868 nM; with HLA-A*02:01 (setting [1]), 55 nM; with HLA-A*68:02 (setting [1]), 14400 nM.
